How the values were obtained:
Type in all cases: binding
[1] = Probe fluorescence ratio response to oleic acid relative to ADIFAB2; conditions: response relative to ADIFAB2
Method in brief: (§1)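 Each fatty acid's response was expressed relative to ADIFAB2, the rI-FABP-L72A probe, as ΔR/ΔRreference. ΔR is the change in the background-corrected two-wavelength intensity ratio R=Fλ1/Fλ2 from its analyte-free baseline R0. Emission was read near about 420-480 nm for unbound and about 495-580 nm for FFA-bound probe.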

[2] = Probe fluorescence ratio response to palmitoleic acid relative to ADIFAB2; conditions: response relative to ADIFAB2
Method in brief: as §1

[3] = Probe fluorescence ratio response to linoleic acid relative to ADIFAB2; conditions: response relative to ADIFAB2
Method in brief: as §1

[4] = Probe fluorescence ratio response to stearic acid relative to ADIFAB2; conditions: response relative to ADIFAB2
Method in brief: as §1

[5] = Probe fluorescence ratio response to palmitic acid relative to ADIFAB2; conditions: response relative to ADIFAB2
Method in brief: as §1

[6] = Probe fluorescence ratio response to arachidonic acid relative to ADIFAB2; conditions: arachidonic acid; response relative to ADIFAB2
Method in brief: as §1

[7] = Probe fluorescence ratio response to linolenic acid relative to ADIFAB2; conditions: response relative to ADIFAB2
Method in brief: as §1

| Molecule | DR/DR OA [1] | DR/DR POA [2] | DR/DR LA [3] | DR/DR SA [4] | DR/DR PA [5] | DR/DR AA [6] | DR/DR LNA [7] |
| --- | --- | --- | --- | --- | --- | --- | --- |
| 14W 18L 117S 72A (protein, listed as Rattus norvegicus, PEPTIDE (1)...(131) wild-type rat intestinal fatty acid binding protein) AFDGTWKVDRNENWEKFLEKMGINVVKRKLGAHDNLKLTITQEGNKFTVKESSNFRNIDVVFELGVDFAYSAADGTELTGTWTMEGNKLVGKFKRVDNGKELIAVREISGNELIQTSTYEGVEAKRIFKKE | 0.904 | 0.811 | 1.063 | 0.297 | 0.377 | 0.976 | 0.835 |
| 72T 73Q 74S (protein, listed as Rattus norvegicus, PEPTIDE (1)...(131) wild-type rat intestinal fatty acid binding protein) AFDGTWKVDRNENYEKFMEKMGINVVKRKLGAHDNLKLTITQEGNKFTVKESSNFRNIDVVFELGVDFAYSTQSGTELTGTWTMEGNKLVGKFKRVDNGKELIAVREISGNELIQTYTYEGVEAKRIFKKE | 2.676 | 3.110 | 2.713 | 1.792 | 2.646 | 2.166 | 2.419 |
| 72H 73Y 74G (protein, listed as Rattus norvegicus, PEPTIDE (1)...(131) wild-type rat intestinal fatty acid binding protein) AFDGTWKVDRNENYEKFMEKMGINVVKRKLGAHDNLKLTITQEGNKFTVKESSNFRNIDVVFELGVDFAYSHYGGTELTGTWTMEGNKLVGKFKRVDNGKELIAVREISGNELIQTYTYEGVEAKRIFKKE | 0.140 | 0.986 | 0.472 | 0.052 | 0.486 | 0.600 | 0.591 |
| 72G 74F (protein, listed as Rattus norvegicus, PEPTIDE (1)...(131) wild-type rat intestinal fatty acid binding protein) AFDGTWKVDRNENYEKFMEKMGINVVKRKLGAHDNLKLTITQEGNKFTVKESSNFRNIDVVFELGVDFAYSGAFGTELTGTWTMEGNKLVGKFKRVDNGKELIAVREISGNELIQTYTYEGVEAKRIFKKE | 1.490 | 2.996 | 2.116 | 0.669 | 2.304 | 1.669 | 1.970 |
| 14L 18L 73L 117A 72A (protein, listed as Rattus norvegicus, PEPTIDE (1)...(131) wild-type rat intestinal fatty acid binding protein) AFDGTWKVDRNENLEKFLEKMGINVVKRKLGAHDNLKLTITQEGNKFTVKESSNFRNIDVVFELGVDFAYSALDGTELTGTWTMEGNKLVGKFKRVDNGKELIAVREISGNELIQTATYEGVEAKRIFKKE | 0.355 | 0.410 | 0.657 | 0.031 | 0.071 | 0.905 | 0.641 |
| 14L 18T 31E 73G 117G 72A (protein, listed as Rattus norvegicus, PEPTIDE (1)...(131) wild-type rat intestinal fatty acid binding protein) AFDGTWKVDRNENLEKFTEKMGINVVKRKLEAHDNLKLTITQEGNKFTVKESSNFRNIDVVFELGVDFAYSAGDGTELTGTWTMEGNKLVGKFKRVDNGKELIAVREISGNELIQTGTYEGVEAKRIFKKE | 1.096 | 1.072 | 1.107 | 0.413 | 0.712 | 1.236 | 1.133 |
| 18G 31W 73V 72A (protein, listed as Rattus norvegicus, PEPTIDE (1)...(131) wild-type rat intestinal fatty acid binding protein) AFDGTWKVDRNENYEKFGEKMGINVVKRKLWAHDNLKLTITQEGNKFTVKESSNFRNIDVVFELGVDFAYSAVDGTELTGTWTMEGNKLVGKFKRVDNGKELIAVREISGNELIQTYTYEGVEAKRIFKKE | 0.942 | 0.770 | 0.855 | 0.489 | 0.463 | 0.774 | 0.705 |
| 14L 18L 31L 73G 117V 72A (protein, listed as Rattus norvegicus, PEPTIDE (1)...(131) wild-type rat intestinal fatty acid binding protein) AFDGTWKVDRNENLEKFLEKMGINVVKRKLLAHDNLKLTITQEGNKFTVKESSNFRNIDVVFELGVDFAYSAGDGTELTGTWTMEGNKLVGKFKRVDNGKELIAVREISGNELIQTVTYEGVEAKRIFKKE | 0.031 | 0.180 | 1.170 | 0.170 | 0.377 | 1.180 | 1.139 |
| 14L 18S 31L 73V 117A 72A (protein, listed as Rattus norvegicus, PEPTIDE (1)...(131) wild-type rat intestinal fatty acid binding protein) AFDGTWKVDRNENLEKFSEKMGINVVKRKLLAHDNLKLTITQEGNKFTVKESSNFRNIDVVFELGVDFAYSAVDGTELTGTWTMEGNKLVGKFKRVDNGKELIAVREISGNELIQTATYEGVEAKRIFKKE | 0.020 | −0.003 | 0.534 | 0.007 | 0.028 | 0.951 | 0.673 |
| 14L 18I 31L 73F 117A 72A (protein, listed as Rattus norvegicus, PEPTIDE (1)...(131) wild-type rat intestinal fatty acid binding protein) AFDGTWKVDRNENLEKFIEKMGINVVKRKLLAHDNLKLTITQEGNKFTVKESSNFRNIDVVFELGVDFAYSAFDGTELTGTWTMEGNKLVGKFKRVDNGKELIAVREISGNELIQTATYEGVEAKRIFKKE | 0.300 | 0.235 | 0.707 | 0.077 | 0.121 | 1.297 | 0.639 |
| 38Q 106W 117A 72A (protein, listed as Rattus norvegicus, PEPTIDE (1)...(131) wild-type rat intestinal fatty acid binding protein) AFDGTWKVDRNENYEKFMEKMGINVVKRKLGAHDNLKQTITQEGNKFTVKESSNFRNIDVVFELGVDFAYSAADGTELTGTWTMEGNKLVGKFKRVDNGKELIAVWEISGNELIQTATYEGVEAKRIFKKE | 0.899 | 0.970 | 0.860 | 0.281 | 0.444 | 1.078 | 0.795 |
| 62N 106F 117A 72A (protein, listed as Rattus norvegicus, PEPTIDE (1)...(131) wild-type rat intestinal fatty acid binding protein) AFDGTWKVDRNENYEKFMEKMGINVVKRKLGAHDNLKLTITQEGNKFTVKESSNFRNIDVVNELGVDFAYSAADGTELTGTWTMEGNKLVGKFKRVDNGKELIAVFEISGNELIQTATYEGVEAKRIFKKE | 0.864 | 0.341 | 0.985 | 0.490 | 0.430 | 1.265 | 0.756 |
| 18I 31L 73L 72A (protein, listed as Rattus norvegicus, PEPTIDE (1)...(131) wild-type rat intestinal fatty acid binding protein) AFDGTWKVDRNENYEKFIEKMGINVVKRKLLAHDNLKLTITQEGNKFTVKESSNFRNIDVVFELGVDFAYSALDGTELTGTWTMEGNKLVGKFKRVDNGKELIAVREISGNELIQTYTYEGVEAKRIFKKE | 0.549 | 0.781 | 0.682 | 0.390 | 1.075 | 0.626 | 0.857 |
| 38V 62V 117A 72A (protein, listed as Rattus norvegicus, PEPTIDE (1)...(131) wild-type rat intestinal fatty acid binding protein) AFDGTWKVDRNENYEKFMEKMGINVVKRKLGAHDNLKVTITQEGNKFTVKESSNFRNIDVVVELGVDFAYSAADGTELTGTWTMEGNKLVGKFKRVDNGKELIAVREISGNELIQTATYEGVEAKRIFKKE | 1.668 | 0.668 | 1.002 | 0.495 | 0.478 | 0.984 | 1.153 |
| 73N 72A 74F (protein, listed as Rattus norvegicus, PEPTIDE (1)...(131) wild-type rat intestinal fatty acid binding protein) AFDGTWKVDRNENYEKFMEKMGINVVKRKLGAHDNLKLTITQEGNKFTVKESSNFRNIDVVFELGVDFAYSANFGTELTGTWTMEGNKLVGKFKRVDNGKELIAVREISGNELIQTYTYEGVEAKRIFKKE | 0.775 | 2.256 | 0.976 | 0.271 | 1.468 | 0.870 | 1.299 |
